Laboratory results as given in patent publication EP2246362B1, “Polymer conjugates of mutated neublastin” (Biogen Idec MA Inc., priority 2003, dated 2004).
Each block holds one molecule with its values, some of them ahead of it.

How the values were obtained:
[1] = molecular target: T1, c-Ret on NB41A3-mRL3 cells (UniProt P35546 29-1115, limits assumed); assay: cell-based or functional assay
[2] = molecular target: T1, c-Ret on NB41A3-mRL3 cells; assay: cell-based or functional assay; remark: listed apart in the source
[3] = tested on: Chung L5/L6 spinal nerve ligation ("SNL") model; assay: Reversal of tactile allodynia and thermal hyperalgesia in the spinal nerve ligation model (Von Frey and Hargreave's tests); format: in vivo, Sprague-Dawley male rats
Protocol: Here, we describe studies to address the reversal effect ofpegylated N95K neublastin on tactile allodynia and thermal hyperalgesia in the Chung L5/L6 spinal nerve ligation ("SNL") model. Sprague-Dawley male rats (230 - 380g) were divided into two groups. All rats received the spinal nerve ligation. One group of rats (n=6) was administered vehicle by subcutaneous injection. A second group of rats (n=6 per group) were administered pegylated N95K neublastin (3,(4) X 10 kDa PEG NBN106-N95K) by subcutaneous injection at 10 µg/kg. 3(,4) X 10 kDa PEG NBN106-N95K, comprised neublastin protein that was E. coli-derived and contained an Asn-to-Lys amino acid substitution at position 95, then truncated (amino-terminus truncation of 7 amino acids; NBN106), and finally pegylated with an average of 3.3 PEG moieties per dimer ofNBN, using methoxylpoly(ethylene glycol)-succinimidyl propionate (SPA-PEG) with a molecular mass of 10,000 Da as the reactant. The vehicle consisted of 5 mM phosphate and 150 mM sodium chloride at pH 6.5. Subcutaneous injections were administered on days 3, 5, 7, 10, 12 and 14 following the operation (post-SNL). The Von Frey (Chaplan et al. (1994), J. Neurosci. Meth. 53: 55-63) and Hargreave's (Hargreaves et al. (1988), Pain. 32: 77-88) behavioral tests were used to monitor tactile and thermal responses, respectively. These pain responses were monitored prior to the spinal nerve ligation to establish baseline responses, on day 2 post-SNL to verify the presence of tactile and thermal hyperalgesia, and then on days 3, 5, 7, 10, 12, 14 and 15 post-SNL. To assess statistical significance of drug treatment relative to vehicle treatment, a 1-way analysis of variance (1-way ANOVA) was carried out followed by a post-hoc Student Neuman Keuls (SNK) test.

[4] = Pharmacokinetic studies in rats (circulating levels after IV, s.c. or i.p. administration); format: in vivo, Sprague Dawley rats
Protocol: The proteins were below the threshold of detection in the serum following subcutaneous administration. To increase bioavailability of neublastin, PEGylated forms of mutated neublastin were constructed.
The pharmokinetic properties of various PEGylated and non-PEGylated mutated neublastin products in rat and mouse models were examined (see Table 8 for summary of results).
Following a 1 mg/kg IV administration in Sprague Dawley rats, peak levels of PEGylated mutated neublastin of 3000 ng/mL were detected after 7 minutes, and levels of 700 ng/mL were detected after 24 h, 200 ng/mL after 48 h, and 100 ng/mL after 72 h. In contrast for non-PEGylated mutated neublastin N95K following a 1 mg/kg IV administration, levels of 1500 ng/mL were detected after 7 minutes, but then the levels quickly dropped to 70 ng/mL after 3 h and were not detectable after 7 h. The effects of PEGylation were even more pronounced in animals treated with PEGylated neublastin by subcutaneous administration.
Following a 1 mg/kg s.c. administration, circulating levels of PEGylated neublastin reached a maximum of 200 ng/mL after 24 h and remained at this level for the duration of the three day study.
The analysis of the PEGylated N95K samples are complicated by the presence of adducts comprising 2, 3 and 4 PEGs per molecule, which each will display a different PK profile. In early PK studies, mice were used to facilitate screening through a variety of candidates and routes of administration. […] This difference in bioavailability was particularly pronounced following i.p. administration. Levels in mice reached 1600 ng/mL after 7 hr and remained at 400 ng/mL after 24 hr. In contrast, rat levels were constant at 100 ng/mL for 4-48 hr.

[5] = molecular target: T2, c-Ret (Mus musculus, UniProt O35118+P35546); assay: Kinase Receptor Activation (KIRA) ELISA: neublastin dependent phosphorylation of c-Ret in NB41A3-mRL3 cells; format: cell-based, murine
T2 construct: NB41A3-mRL3 cells, an adherent murine neuroblastoma cell line which expresses Ret and GFRα3; endogenous in cells; host or cells: NB41A3-mRL3 (murine neuroblastoma)
Protocol: The potency of PEGylated mutated rat neublastin was measured using neublastin dependent activation/ phosphorylation of c-Ret as a reporter for neublastin activity in an ELISA that was specific for the presence of phosphorylated RET. NB41A3-mRL3 cells, an adherent murine neuroblastoma cell line which expresses Ret and GFRα3, were plated at 2 x 10^5 cells per well in 24-well plates in Dulbecco's modified eagle medium (DMEM), supplemented with 10 % fetal bovine serum, and cultured for 18 h at 37 °C and 5 % CO2.
The cells were washed with PBS, and treated with serial dilutions of neublastin in 0.25 mL of DMEM for 10 min at 37°C and 5 % CO2. Each sample was analyzed in duplicate. The cells were washed with 1 mL of PBS, and lysed for 1h at 4 °C with 0.30 mL of 10 mM Tris HC1, pH 8.0, 0.5 % Nonidet P40, 0.2 % sodium deoxycholate, 50 mM NaF, 0.1 mM Na3 VO4,1 mM phenylmethylsulfonyl fluoride with gently rocking the plates. The lysates were further agitated by repeated pipetting and 0.25 mL of sample was transferred to a 96-well ELISA plate that had been coated with 5 µg/mL of anti-Ret mAb (AA.GE7.3) in 50 mM carbonate buffer, pH 9.6 at 4°C for 18 h, and blocked at room temperature for one hour with block buffer (20 mM Tris HC1 pH 7.5, 150 mM NaCl, 0.1% Tween-20 (TBST) containing 1 % normal mouse serum and 3 % bovine serum albumin).
After a 2 h incubation at room temperature, the wells were washed 6-times with TBST. Phosphorylated Ret was detected by incubating the wells at room temperature for 2 h with 2 µg/mL of horseradish peroxidase (HRP)-conjugated anti-phosphotyrosine 4G10 antibody in block buffer, washing 6-times with TBST, and measuring HRP activity at 450 nm with a colorometric detection reagent. The absorbance values from wells treated with lysate or with lysis buffer were measured and the background corrected signal was plotted as a function of the concentration of neublastin present in the activation mixture.
Neublastin activity was determined by its ability to stimulate c-Ret phosphorylation in NB41A3-mRL3 cells using the KIRA ELISA described in Example 3. Phosphorylated Ret was detected by incubating (2 hours) the captured receptor with HRP-conjugated phosphotyrosine antibody (4G10; 0.2 µg per well). Following the incubation, the wells were washed six times with TBST, and the HRP activity detected at 450 nm with a colorimetric assay. The absorbance values from wells treated with lysate or with lysis buffer alone were measured, background corrected, and the data plotted as a function of the concentration of neublastin present in the activation mixture.

[6] = parameters: species or system mice; conditions: mouse, in vivo
Excerpt: The pharmokinetic properties of various PEGylated and non-PEGylated mutated neublastin products in rat and mouse models were examined (see Table 8 for summary of results). The analysis of the PEGylated […] samples are complicated by the presence of adducts comprising 2, 3 and 4 PEGs per molecule, which each will display a different PK profile. In early PK studies, mice were used to facilitate screening through a variety of candidates and routes of administration. […] This difference in bioavailability was particularly pronounced following i.p. administration. Levels in mice reached 1600 ng/mL after 7 hr and remained at 400 ng/mL after 24 hr. In contrast, rat levels were constant at 100 ng/mL for 4-48 hr. Two surprising and unexpected results emerged from the PK studies summarized in Table 8: 1) PEGylation of the amino-terminal amino acids of non-glycosylated neublastin was not sufficient to increase serum exposure substantially, and 2) PEGylation of the amino-terminal amino acid(s) of neublastin together with modification (e.g. PEGylation or glycosylation) of amino acid 95 was sufficient to increase serum exposure substantially.

T1 sequence (P35546 29-1115 limits assumed): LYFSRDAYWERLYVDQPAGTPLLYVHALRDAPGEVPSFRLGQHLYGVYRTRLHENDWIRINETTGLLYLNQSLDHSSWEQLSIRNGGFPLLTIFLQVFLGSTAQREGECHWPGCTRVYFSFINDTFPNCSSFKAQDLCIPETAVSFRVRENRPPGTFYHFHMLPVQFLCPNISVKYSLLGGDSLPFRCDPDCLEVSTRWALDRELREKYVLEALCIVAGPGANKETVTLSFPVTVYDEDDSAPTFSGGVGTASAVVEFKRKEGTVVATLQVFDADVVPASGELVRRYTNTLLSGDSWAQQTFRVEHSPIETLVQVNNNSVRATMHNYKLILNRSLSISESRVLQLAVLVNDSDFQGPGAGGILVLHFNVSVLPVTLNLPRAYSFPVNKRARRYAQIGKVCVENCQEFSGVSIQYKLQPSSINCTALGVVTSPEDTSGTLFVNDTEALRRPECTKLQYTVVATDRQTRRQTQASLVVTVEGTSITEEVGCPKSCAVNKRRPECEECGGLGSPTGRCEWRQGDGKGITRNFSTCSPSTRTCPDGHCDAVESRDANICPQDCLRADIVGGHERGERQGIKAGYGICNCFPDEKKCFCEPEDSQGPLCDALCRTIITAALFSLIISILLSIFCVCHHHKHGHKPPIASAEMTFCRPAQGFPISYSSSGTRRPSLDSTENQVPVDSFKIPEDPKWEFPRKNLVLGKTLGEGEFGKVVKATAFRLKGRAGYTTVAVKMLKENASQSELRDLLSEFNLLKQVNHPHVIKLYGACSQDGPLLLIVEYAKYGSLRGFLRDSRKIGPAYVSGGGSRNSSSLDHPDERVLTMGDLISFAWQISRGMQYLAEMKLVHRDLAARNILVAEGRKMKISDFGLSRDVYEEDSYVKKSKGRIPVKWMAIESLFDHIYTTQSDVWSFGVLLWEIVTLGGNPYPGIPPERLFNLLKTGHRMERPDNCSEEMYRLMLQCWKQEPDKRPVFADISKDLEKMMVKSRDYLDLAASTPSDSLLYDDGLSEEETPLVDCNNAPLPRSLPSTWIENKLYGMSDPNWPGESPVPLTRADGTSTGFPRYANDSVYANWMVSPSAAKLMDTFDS
T2 sequence (P35546 29-1115): as the sequence (P35546 29-1115 limits assumed) above
T2 sequence (O35118 29-397): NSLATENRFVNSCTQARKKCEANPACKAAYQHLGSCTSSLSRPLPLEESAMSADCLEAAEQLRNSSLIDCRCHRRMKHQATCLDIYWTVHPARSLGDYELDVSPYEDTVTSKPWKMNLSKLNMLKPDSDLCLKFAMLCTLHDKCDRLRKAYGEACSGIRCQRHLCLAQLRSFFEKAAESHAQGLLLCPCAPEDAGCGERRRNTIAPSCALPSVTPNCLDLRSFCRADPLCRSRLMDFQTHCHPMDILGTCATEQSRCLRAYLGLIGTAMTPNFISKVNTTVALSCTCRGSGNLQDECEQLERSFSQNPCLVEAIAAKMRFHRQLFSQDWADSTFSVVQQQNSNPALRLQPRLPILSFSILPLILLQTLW

B2: 3(,4) X 10 kDa PEG NBN106-N95K (ligand)
chain: ARATDARGCRLRSQLVPVSALGLGHSSDELIRFRFCSGSCRRARSPHDLSLASLLGAGALRSPPGSRPISQPCCRPTRYEAVSFMDVKSTWRTVDHLSATACGCLG
modifications: average of 3.3 10 kDa PEG (SPA-PEG) per dimer: on both amino-terminal amino acids and on one or both Lys95 (PEGylated amino acids 1,1,95 (,95))
KIRA: ∼EC50 [1]: ~1.6 nM
KIRA: ∼Max Efficacy vs WT [1]: ~90%
specific activity in the KIRA ELISA [2]: 10 nM

B3: 3 (,4) X 10 kDa PEG NBN106-N95K: mixed population of NBN106-N95K homodimers conjugated to three or four 10 kDa PEG moieties, average 3.3 PEG per dimer (conjugate)
chain: B2 chain
normalization of pain behaviors (tactile and thermal hyperalgesia) ([3]; 3 µg/kg s.c. on days 3, 5, 7, 10, 12 and 14, data not shown, onset somewhat slower): significant normalization
reversal of both types of neuropathic pain (tactile allodynia and thermal hyperalgesia) ([3]; 10 µg/kg s.c. on days 3, 5, 7, 10, 12 and 14 post-SNL, rats): substantial and statistically significant reversal
time after initiation of administration at which effect on thermal sensitivity and tactile allodynia first became statistically significant ([3]; 10 µg/kg s.c., rats): 4 days
time after initiation of administration at which effect on thermal sensitivity and tactile allodynia reached a plateau ([3]; 10 µg/kg s.c., rats): approximately 4 days
levels after 7 minutes ([4]; 1 mg/kg IV, Sprague Dawley rats, 7 minutes): 3000 ng/mL
levels after 24 h ([4]; 1 mg/kg IV, Sprague Dawley rats, 24 h): 700 ng/mL
levels after 48 h ([4]; 1 mg/kg IV, Sprague Dawley rats, 48 h): 200 ng/mL
maximum circulating levels ([4]; 1 mg/kg s.c., maximum after 24 h, remained at this level for the three day study): 200 ng/mL
activity / potency in the KIRA ELISA (in words) ([5]; compared with wild-type NBN113 / mature form): indistinguishable from that of the wild-type NBN113 material
effect of two freeze-thaw cycles on potency ([5]; potency in KIRA ELISA after two freeze-thaw cycles): no effect
levels in mice after 7 hr ([6]; ip): 1600 ng/mL
levels in mice after 24 hr ([6]; ip): 400 ng/mL
Exposure in Mice After s.c. Administration ([6]; sc): ++

The remaining lines, values ahead:

KIRA: ∼Max Efficacy vs WT [1]: ~100%
IC50 in the KIRA ELISA [2]: 3 to 6 nM
specific activity in the KIRA ELISA [2]: ~10 nM
B1: wild-type rat neublastin (NBN113), E. coli derived (ligand)
chain: AGTRSSRARATDARGCRLRSQLVPVSALGLGHSSDELIRFRFCSGSCRRARSPHDLSLASLLGAGALRSPPGSRPISQPCCRPTRYEAVSFMDVNSTWRTVDHLSATACGCLG

KIRA: ∼EC50 [1]: ~11 nM
KIRA: ∼Max Efficacy vs WT [1]: > 80%
KIRA ELISA (potency in activating Ret, fold less than wild-type NBN113) [2]: ~10 fold
B4: 4 X 10 kDa PEG NBN106-N95K (ligand)
chain: B2 chain
modifications: 10 kDa PEG on the amino-terminal amino acid and on Lys95 of each chain (PEGylated amino acids 1,1,95,95)
